This assay deals with SARS-CoV1-SΔ28 (SARS-CoV-1 spike protein truncated at the C terminus, on pseudovirions) (SARS-CoV-1).

CC6.33 (antibody): the neutralization IC50 of SARS-CoV-1 pseudovirus amounted to 0.162 µg/mL.

Values taken from publication PMC7299280.
